Molecular target: DexA (bacteriophage T4)
Experiment: SEC; Äkta pure, HiLoad 16/600 Superdex 75 pg (Cef, MRH, Pin, DexA) or Superdex 200 pg (Y04L, Gp57B), in the respective dialysis buffers (Supplementary Table 3)

Sequence of DexA (P04536 whole entry): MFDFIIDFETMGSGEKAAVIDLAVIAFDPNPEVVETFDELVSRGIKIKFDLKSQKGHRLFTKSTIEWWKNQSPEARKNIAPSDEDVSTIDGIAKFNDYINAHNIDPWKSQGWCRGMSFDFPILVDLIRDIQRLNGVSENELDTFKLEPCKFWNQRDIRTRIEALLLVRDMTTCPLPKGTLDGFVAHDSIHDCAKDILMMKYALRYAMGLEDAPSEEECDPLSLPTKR

stoichiometry N: 2
Substance: DexA (enzyme)

— publication PMC8076793
